Among the data in PMC8658920 are ratio of biotinylation level, experiment versus control BAP-HP1γ + BirA-Tap54α (4 h biotinylation time) values, retold here.

The target in this experiment is heterochromatin protein HP1γ (UniProt Q13185). The experiment in a line: proximity labelling; PUB (proximity utilizing biotinylation): BAP-HP1γ co-expressed with BirA-HP1γ or, in a separate dish, with BirA-Tap54α; 4 h biotinylation time; MRM LC-MS/MS on Agilent nanoHPLC-Chip ion trap, Skyline; ratio of biotinylation level, experiment versus control.

heterochromatin protein HP1γ, Q13185 1-183 (natural protein; other documents disagree on this pair), sequence (Q13185 whole entry): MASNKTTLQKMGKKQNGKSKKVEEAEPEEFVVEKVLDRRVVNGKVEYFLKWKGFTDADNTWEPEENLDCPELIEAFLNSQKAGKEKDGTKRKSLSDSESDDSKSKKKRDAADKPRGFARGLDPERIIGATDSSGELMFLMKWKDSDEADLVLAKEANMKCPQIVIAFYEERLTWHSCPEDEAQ

Take “heterochromatin protein HP1γ, Q13185 1-183 (natural protein; other documents disagree on this pair)”: the ratio of biotinylation level, experiment versus control BAP-HP1γ + BirA-Tap54α (4 h biotinylation time) worked out at 32.
